Earlier results as cited in PMC8961861.

Target: Drebrin 1-300 (Homo sapiens) (UniProt Q16643)
Experiment: NMR

Sequence of UniProt Q16643 (Q16643 1-300): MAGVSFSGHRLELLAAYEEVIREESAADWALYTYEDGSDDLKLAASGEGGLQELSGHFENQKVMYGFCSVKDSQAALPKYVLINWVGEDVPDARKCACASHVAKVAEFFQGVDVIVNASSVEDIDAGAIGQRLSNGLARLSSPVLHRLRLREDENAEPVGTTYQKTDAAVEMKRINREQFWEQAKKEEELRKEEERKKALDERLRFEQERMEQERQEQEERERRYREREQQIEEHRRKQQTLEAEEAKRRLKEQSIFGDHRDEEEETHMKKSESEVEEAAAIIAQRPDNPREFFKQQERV

Cx43CT 236-382 (from UniProt P08050)
Kd: 300 µM
